Residue numbers refer to the chain shown, from its start. Numbers in names are those of the source.
Experiments:
[1] = target: T1, human CCL2 (MCP1) - wild type (wt) (human, UniProt P13500 24-99); test: SPR T200, 37 C, antibody captured, 1:1 model
T1 construct: Made in-house or bought (R&D Systems 279-MC), depending on the assay; can form dimers; also called wt human CCL2; WT human CCL2
Description: (§1) Antibody clone supernatants were diluted 1:2 in system buffer and were captured for 1 min at 5 μl/min. […] Analyte kinetics were performed at 30 μl/min. As analyte in solution wt human CCL2 or monomeric CCL2 P8A variant CCL2 were used. Analytes were injected at 90 nM highest concentration. The analyte contact time was 3 min and the dissociation time was 10 min. The Biaevaluation software V.3.0 was used according to the instructions of the manufacturer GEHC. A 1:1 binding model with RMAX local was applied to apparently estimate kinetic rates.

[2] = target: T2, human CCL2 (MCP1) - P8A variant (human, UniProt P13500 24-99); test: SPR T200, 37 C, antibody captured, 1:1 model
T2 construct: In-house point mutant that cannot dimerise; also called monomeric human CCL2; monomeric CCL2
Description: as §1

[3] = target: T1, human CCL2 (MCP1) - wild type (wt); test: cell-based or functional assay
[4] = target: T2, human CCL2 (MCP1) - P8A variant; test: number printed over the column of sensorgrams; the assay and the CCL2 form behind the number are not stated on the sheet (the sensorgrams are on monomeric CCL2)
[5] = target: T1, human CCL2 (MCP1) - wild type (wt); test: cell-based or functional assay; remark: listed apart in the source
[6] = target: T3, human FcγRIIb receptor on CHO-K1 cells (clone 223) (human, UniProt P31994 43-310); test: cell-based or functional assay
T3 sequence (looked up): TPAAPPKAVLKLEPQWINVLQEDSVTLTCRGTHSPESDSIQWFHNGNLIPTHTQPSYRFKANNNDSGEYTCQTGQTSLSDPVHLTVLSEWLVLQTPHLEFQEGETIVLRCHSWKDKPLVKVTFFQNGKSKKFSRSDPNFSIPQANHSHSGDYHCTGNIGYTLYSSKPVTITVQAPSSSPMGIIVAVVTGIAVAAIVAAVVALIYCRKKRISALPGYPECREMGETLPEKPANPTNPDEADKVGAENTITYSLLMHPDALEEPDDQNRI

[7] = target: T2, human CCL2 (MCP1) - P8A variant; test: number printed beside the row of sensorgrams; the assay and the CCL2 form behind the number are not stated on the sheet (the sensorgrams are on monomeric CCL2)
[8] = target: T1, human CCL2 (MCP1) - wild type (wt); test: SPR, C1 chip, anti-human Fc capture, 25 C, pH 7.4, Langmuir 1:1
Description: The sample and system buffer was PBS-T (10 mM phosphate buffered saline including 0.05% Tween20) pH 7.4. The flow cell was set to 25° C.—and the sample block set to 12° C.—and primed with running buffer twice. The bispecific antibody was captured by injecting a 2 μg/ml solution for 60 see at a flow rate of 10 μl/min. Association was measured by injection of human CCL2 (wt) in various concentrations in solution for 150 see at a flow rate of 30 μl/min starting with 30 nM in 1:10 dilutions. The dissociation phase was monitored for up to 1200 sec and triggered by switching from the sample solution to running buffer. […] Bulk refractive index differences were corrected by subtracting the response obtained from a goat anti human IgG Fc surface. Blank injections are also subtracted (=double referencing). For calculation of kinetic parameters, the Langmuir 1:1 model was used.

B1: 1A4 (antibody, V domains shown)
VH: QSLEESGGDLVKPGASLTLTCTASELDFYWICWVRQAPGKGLEWIACIGAGSSGSTYYASWAKGRFTVSKTSSTTVTLQMTSLTAADTATYFCARTGTEFTYYSLWGPGTLVTVSS
VL: ALVMTQTPSSVSAAVGGTVTINCQASQSVYNNNMAWYQQKPGQPPKLLIYTASSLASGVPSHFRGSGSGTQFTLTISDLESDDAATYYCAGYKSYSNDEYGFGGGTEVVVK
notes: which format stood in each assay is not always stated; also called CCL2-0008
B1 was tested, and the Kd [1] was 0.073 nM, the “T1/2” value [1] was 1.67 h and the Kd [2] was 0.059 nM. The “T1/2” value [2] was 2.9 h and the “THP1 chemotaxis [fold change compared to IgG control]” value [3] was 4.5 fold.

B2: 2F6 (antibody, IgG1, V domains shown)
VH: QSLEESGGGLVQPEGSLTLTCTASGFSFNNNYYMCWVRQAPGKGLEWIGCISTDDSNTHYASWAQGRFTISKASSTALTLQVAGLTVADMATYFCARDAHFTSYGYGFDLWGPGTLVTVSS
VL: DIVMTQTPASVSAAVGGTVSINCRASEDIENLVAWYQQKPGQPPKLLIYQASKLASGVPSRFKGSGSGAEFTLTIGDLESADAATYYCQGDYGSGWIMYSFGGGTDLVVK
notes: also called CCL2-0014
B2 was tested, and the Kd [1] was 0.059 nM, the “T1/2” value [1] was 0.867 h and the Kd [2] was 0.091 nM. For the same binder, the “T1/2” value [2] was 0.783 h and the “THP1 chemotaxis [fold change compared to IgG control]” value [3] was 6.7 fold.

B3: murine 11K2 (antibody, V domains shown)
VH: EVQLQQSGAELVKAGASVKLSCPASGLNIKDTYMHWVKQRPEQGLEWIGRIDPANGNTKFDPKFQGKATITADTSSNTAYLQLSSLTSEDTAVYYCARGVFGFFDYWGQGTTLTVSS
VL: DIQMTQSSSSFSVSLGDRVTITCKATEDIYNRLAWYQQKPGSAPRLLISGATSLETGVPSRFSGSGSGKDYTLSITSLQTEDVATYYCQQFWSAPYTFGGGTKLEIK
notes: also called 11K2m; X-0048
For B3, the Kd [1] was 0.35 nM, the “T1/2” value [1] was 0.317 h and the Kd [2] was 0.011 nM. The “T1/2” value [2] was 8.63 h and the “THP1 chemotaxis [fold change compared to IgG control]” value [3] was 6.9 fold.

B4: 11K2H1503/11K2L1338 (antibody, V domains shown)
VH: QVQLVQSGAEVKKPGSSVKVSCKASGLTISHTYMHWVRQAPGQGLEWMGRIDPDNHNTKFDPKFQGRVTITADTSTSTAYMELSSLRSEDTAVYYCARGVFGFFDHWGQGTTVTVSS
VL: DIQMTQSPSSLSASVGDRVTITCKAFEDIYNRRAWYQQKPGKAPKLLIHGATSLEHGVPSRFSGSGSGTDYTLTISSLQPEDFATYYCQQFWSAPYTFGGGTKVEIK
notes: also called modified 11K2 variant (VH H1503 / VL L1338)
For B4, the “Affinity relative to parent 11K2” value [4] was 0.2.

B5: 11K2H1503/11K2L1201 (antibody, V domains shown)
VH: B4 VH
VL: B4 VL with F26T, R33L, W92R
notes: also called modified 11K2 variant (VH H1503 / VL L1201)
In the case of B5, the “Affinity relative to parent 11K2” value [4] is reported as 0.05.

B6: 11K2H1510/11K2L1338 (antibody, V domains shown)
VH: B4 VH with D105E
VL: B4 VL
notes: also called modified 11K2 variant (VH H1510 / VL L1338)
For B6, the “Affinity relative to parent 11K2” value [4] was under 0.01.

B7: 11K2H1514/11K2L1338 (antibody, V domains shown)
VH: B4 VH with D54E, D105E
VL: B4 VL
notes: also called modified 11K2 variant (VH H1514 / VL L1338)
In the case of B7, the “Affinity relative to parent 11K2” value [4] is reported as 0.02.

B8: CKLO2-IgG1 (bispecific antibody)
heavy 1: not shown
heavy 2: not shown
light 1: QVQLVQSGAEVKKPGSSVKVSCKASGLTISHTYMHWVRQAPGQGLEWMGRIDPDNHNTKFDPKFQGRVTITADTSTSTAYMELSSLRSEDTAVYYCARGVFGFFEHWGQGTTVTVSSASVAAPSVFIFPPSDEQLKSGTASVVCLLNNFYPREAKVQWKVDNALQSGNSQESVTEQDSKDSTYSLSSTLTLSKADYEKHKVYACEVTHQGLSSPVTKSFNRGEC
light 2: EIVLTQSPATLSLSPGERATLSCRASQHVSDAYLAWYQQKPGQAPRLLIYDASDRAEGVPARFSGSGSGTDFTLTISSLEPEDFAVYYCHQYIHLHSFTFGQGTKVEIKRTVAAPSVFIFPPSDRKLKSGTASVVCLLNNFYPREAKVQWKVDNALQSGNSQESVTEQDSKDSTYSLSSTLTLSKADYEKHKVYACEVTHQGLSSPVTKSFNRGEC
With B8 the “IC50, inhibition of THP-1 migration (chemotaxis assay)” value (from here on “IC50, inhibition of THP-1 migration”) [5] was 0.2 µg/mL.

B9: CKLO2-SG1095 (=P1AD8325) (bispecific antibody)
heavy 1: DIQMTQSPSSLSASVGDRVTITCKAFEDIYNRRAWYQQKPGKAPKLLIHGATSLEHGVPSRFSGSGSGTDYTLTISSLQPEDFATYYCQQFWSAPYTFGGGTKVEIKSSASTKGPSVFPLAPSSKSTSGGTAALGCLVKDYFPEPVTVSWNSGALTSGVHTFPAVLQSSGLYSLSSVVTVPSSSLGTQTYICNVNHKPSNTKVDKKVEPKSCDKTHTCPPCPAPELWNGPSVFLFPPKPKDTLMISRTPEVTCVVVDVSDEDPEVKFNWYVDGVEVHNAKTKPREELYNSTYRVVSVLTVLHRDWLNGKEYKCKVSNTALPKPIEKTISKAKGQRREPQVYTLPPCRDELTKNQVSLWCLVKGFYPSDIAVEWESNGQPENNYKTTPPVLDSDGSFFLYSKLTVDKSRWQQGNVFSCSVMHEALHAHYTRKELSLSP
heavy 2: not shown
light 1: B8 light 1
light 2: B8 light 2
B9 was tested, and the “IC50, inhibition of THP-1 migration” value [5] was 0.2 µg/mL, the “Depletion level max (%) of CCL2 from the supernatant” value [6] was 85% and the “EC50 [nM] of CCL2 depletion” value [6] was 0.5 nM.

B10: CKLO2-GG01 (=P1AF8137) (bispecific antibody)
heavy 1: B9 heavy 1 with L226Y, W227L, N228G, P230D, T242V, V256I, D260H, L287Q, T299P, T318K
heavy 2: not shown
light 1: B8 light 1
light 2: B8 light 2
B10 was tested, and the “IC50, inhibition of THP-1 migration” value [5] was 0.2 µg/mL.

B11: CNTO888H0625/CNTO888L0616 (antibody, V domains shown)
VH: QVQLVQSGAEVKKPGSSVKVSCKASGGTFSHYGISWVRQAPGQGLEWMGGIIHIFHTANYAQKFQGRVTITADESTSTAYMELSSLRSEDTAVYYCARYDAHYGELDFWGQGTLVTVSS
VL: EIVLTQSPATLSLSPGERATLSCRASQHVSDAYLAWYQQKPGQAPRLLIYDASDRAEGVPARFSGSGSGTDFTLTISSLEPEDFAVYYCHQYIHLHSFTFGQGTKVEIK
notes: also called modified CNTO888 variant (VH H0625 / VL L0616)
For B11, the “Affinity relative to parent CNTO888” value [7] was 3 X.

B12: CNTO888H0634/CNTO888L0616 (antibody, V domains shown)
VH: B11 VH with I34T, H56G
VL: B11 VL
notes: also called modified CNTO888 variant (VH H0634 / VL L0616)
For B12, the “Affinity relative to parent CNTO888” value [7] was 10 X.

B13: 1A5//2F6-WT IgG1 (bispecific antibody, V domains shown)
VH 1: QEQLVESGGDLVKPEGSLTLTCTASGFSFSTSYWMCWVRQAPGKGLELIACISSSIGVTYYASWAEGRFTISKTSSTTVTLQMTSLTVADTATYFCARTTDDNWNVGFNLWGPGTLVTVSS
VL 1: AYDMTQTPASVEVGVGGTVTIKCQASQSIGNRYLSWYQQKPGQPPKLLIYGTSTLASGVSSRFKGSGSGTQFTLTISGVESADSATYYCQQGATISYLDNAFGGGTEVVVK
VH 2: B2 VH
VL 2: B2 VL
notes: CrossMab, wild type IgG1 with knobs-into-holes; crossed arm 1A5, non-crossed arm 2F6; also called CCL2-0058; P1AA3427
B13: binds [8].

B14: ABN912//11K2-PGLALA (bispecific antibody, V domains shown)
VH 1: B4 VH with H31D, D54A, H56G, H106Y
VL 1: B4 VL with F26T, R33L, H49S, H56T
VH 2: EVQLVQSGGGLVQPGGSLRLSCAASGFTFSHYWMSWVRQAPGKGLEWLANIEQDGSEKYYVDSVKGRFTISRDNAKNSLYLQMNSLRAEDTAVYFCARDLEGLHGDGYFDLWGRGTLVTVSS
VL 2: AIQLTQSPSSLSASVGDRVILTCRASQGVSSALAWYQQKPGKAPKLLIYDASSLESGVPSRFSGSGSGPDFTLTISSLQPEDFATYFCQQFNSYPLTFGGGTKVEIK
notes: CrossMab, IgG1 with L234A, L235A, P329G, knobs-into-holes; VH/VL-crossed arm humanized 11K2, non-crossed arm ABN912; also called CCL2-0041; P1AA3411
B14: binds [8].

B15: 11K2//1G9-PGLALA (bispecific antibody, V domains shown)
VH 1: B4 VH with H31D, D54A, H56G, H106Y
VL 1: B4 VL with F26T, R33L, H49S, H56T
VH 2: QSLEESGGDLVKPGASLTLTCKASGIDFSLYSYMCWVRQAPGKGLEWIACVDAGASGSTYYASWAKGRFTISKTSSTTVTLQMTSLTAADTATYFCARGILYYTWPYPAGAIDAFDSWGPGTLVTVSS
VL 2: AYDMTQTPASVSEPVGGTVTIKCQASESISNYLSWYQQKPGQPPKLLIYKASTLASGVPSRFKGSGSGTEYTVTISGVQSDDAATYYCQQSYSSSNVFNTFGGGTEVVVK
notes: CrossMab, IgG1 with L234A, L235A, P329G, knobs-into-holes; crossed arm humanized 11K2, non-crossed arm 1G9; also called CCL2-0043; P1AA3463
B15: binds [8].

— patent US20240360208A1 (Hoffmann-La Roche, published 2024)
